This experiment addresses human GLP-1 receptor (GLP-1R) (human) (UniProt P43220).
Sequence of UniProt P43220 (P43220 24-463): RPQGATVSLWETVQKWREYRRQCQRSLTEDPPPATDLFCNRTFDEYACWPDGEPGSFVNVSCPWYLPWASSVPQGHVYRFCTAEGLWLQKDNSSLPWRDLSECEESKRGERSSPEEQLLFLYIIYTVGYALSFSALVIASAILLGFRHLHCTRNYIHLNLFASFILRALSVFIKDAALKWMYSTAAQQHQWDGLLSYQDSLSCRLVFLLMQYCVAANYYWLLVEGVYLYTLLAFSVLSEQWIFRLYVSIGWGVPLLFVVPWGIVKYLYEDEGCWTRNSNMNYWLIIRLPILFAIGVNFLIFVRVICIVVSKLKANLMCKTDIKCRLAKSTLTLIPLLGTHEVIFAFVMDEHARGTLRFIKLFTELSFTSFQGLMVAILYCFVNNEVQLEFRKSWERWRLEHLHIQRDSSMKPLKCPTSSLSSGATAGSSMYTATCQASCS

“GLP-1(7-37) peptide (from UniProt P01275 21-180)” showed an EC50 (read off the curve), 4 hr stimulation of 1 nM.

The values above are taken from US20260193324A1.
